Holding throughout (experiment): SPR; IL6R-BF648/IL6R-L=100
In general terms: Surface plasmon resonance follows binding to a sensor surface in real time, without labels.

Assay [1] has as its target T1, human FcγRIa extracellular domain with C-terminal His tag (human, UniProt P12314 16-292).
T1 construct: Whole entry named; also called FcgRIa; FcgIa
Here is the method: (§1) IL6R-L was utilized as the common antibody L chain for all of the antibodies, the antibodies were expressed and purified according to the method of Reference Example 1, and binding to each of the FcγRs (FcγRIa, FcγRIIa type H, FcγRIIa type R, FcγRIIb, and FcγRIIIa type V) was comprehensively evaluated by the method of Reference Example 2.
(§2) Relative binding activities were calculated for the results of analyzing interactions with the respective FcγRs according to the following method.

Assay [2] has as its target T2, human FcγRIIb extracellular domain with C-terminal His tag (human, UniProt P31994 43-217).
T2 construct: extracellular domain; For crystals it was expressed with kifunensine and trimmed with Endo F1; also called FcgRIIb; FcγRIIb extracellular region
T2 sequence (looked up): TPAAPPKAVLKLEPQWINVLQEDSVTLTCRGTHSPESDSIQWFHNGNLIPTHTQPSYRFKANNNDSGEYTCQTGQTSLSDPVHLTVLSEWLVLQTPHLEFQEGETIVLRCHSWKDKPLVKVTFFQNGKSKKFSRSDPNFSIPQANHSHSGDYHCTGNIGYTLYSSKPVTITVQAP
Here is the method:
as §1, §2

Assay [3] concerns the target T3, human FcγRIIa type H extracellular domain with C-terminal His tag (human, UniProt P12318 34-217).
T3 construct: extracellular domain; also called FcgRIIaH; FcγRIIa H
T3 sequence (looked up): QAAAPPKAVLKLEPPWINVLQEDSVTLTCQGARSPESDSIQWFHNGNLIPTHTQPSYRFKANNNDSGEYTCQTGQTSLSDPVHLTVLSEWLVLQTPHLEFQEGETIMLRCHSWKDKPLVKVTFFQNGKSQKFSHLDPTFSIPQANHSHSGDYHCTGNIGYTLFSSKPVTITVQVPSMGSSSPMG
How it is done: as §1, §2

In assay [4] the target is T4, human FcγRIIIa type V extracellular domain with C-terminal His tag (human, UniProt P08637 17-208).
T4 construct: extracellular domain; also called FcgRIIIaV; FcγRIIIaV
Here is the method:
as §1, §2

Where a chain is given by its changes, count along the chain named.

T1 sequence (P12314 16-292): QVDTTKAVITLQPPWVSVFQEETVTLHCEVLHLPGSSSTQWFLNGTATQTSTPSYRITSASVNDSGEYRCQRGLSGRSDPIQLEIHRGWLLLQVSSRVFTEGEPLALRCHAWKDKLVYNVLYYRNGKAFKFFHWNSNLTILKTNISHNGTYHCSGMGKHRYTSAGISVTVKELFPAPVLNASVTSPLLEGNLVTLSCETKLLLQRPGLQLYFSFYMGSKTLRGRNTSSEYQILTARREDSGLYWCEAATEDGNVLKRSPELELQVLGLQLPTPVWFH
T4 sequence (P08637 17-208 F176V): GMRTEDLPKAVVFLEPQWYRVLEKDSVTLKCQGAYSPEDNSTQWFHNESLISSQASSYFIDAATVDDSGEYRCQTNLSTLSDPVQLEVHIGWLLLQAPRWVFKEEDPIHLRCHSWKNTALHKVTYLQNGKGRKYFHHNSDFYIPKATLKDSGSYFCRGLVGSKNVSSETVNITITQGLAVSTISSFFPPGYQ

B1: IL6R-BP201/IL6R-L (antibody, human IgG1, kappa, name in EU numbering)
heavy: QVQLQESGPGLVKPSETLSLTCAVSGHSISHDHAWSWVRQPPGEGLEWIGFISYSGITNYNPSLQGRVTISRDNSKNTLYLQMNSLRAEDTAVYYCARSLARTTAMDYWGEGTLVTVSSASTKGPSVFPLAPSSKSTSGGTAALGCLVKDYFPEPVTVSWNSGALTSGVHTFPAVLQSSGLYSLSSVVTVPSSSLGTQTYICNVNHKPSNTKVDKKVEPKSCDKTHTCPPCPAPDLLGDDSVFLFPPKPKDTLMISRTPEVTCVVVDVSHEDGEVKFNWYVDGVEVHNAKTKPREEQYNSTYRVVSVLTVLHQDWLNGKEYKCKVSNKALPRPIEKTISKAKGQPREPQVYTLPPSRDELTKNQVSLTCLVKGFYPSDIAVEWESNGQPENNYKTTPPVLDSDGSFFLYSKLTVDKSRWQQGNVFSCSVMHEALHNHYTQESLSLSP
light: not shown
Turning to B1, the values for the relative binding activity in assay [1], in assay [2] and in assay [3] were 57, 186 and 359, respectively.

B2: IL6R-BP086/IL6R-L (antibody, human IgG1, kappa, name in EU numbering)
heavy: B1 heavy with D235E, D239G, G273P, K328A, R332K
light: not shown
In the case of B2, the relative binding activity in assay [1] was 72; in assay [2] it was 137; in assay [4], 123; in assay [3] it was 116.

B3: IL6R-BP191/IL6R-L (antibody, human IgG1, kappa, name in EU numbering)
heavy: B1 heavy with D239G, H270D, K328A, R332K
light: not shown
On to B3, for which the relative binding activity amounted to 125 in assay [1], 142 in assay [4] and 145 in assay [3].

B4: IL6R-BP212/IL6R-L (antibody, human IgG1, kappa, name in EU numbering)
heavy: B1 heavy with D239G, H270D, Y298D
light: not shown
Regarding B4, the values for the relative binding activity in assay [1], in assay [2] and in assay [3] were 117, 173 and 135, respectively.

B5: IL6R-BP193/IL6R-L (antibody, human IgG1, kappa, name in EU numbering)
heavy: B1 heavy with D239G, H270D, R332K
light: not shown
Regarding B5, the relative binding activity in assay [1] turned out to be 113; in assay [2], 173; in assay [3] it was 154.

B6: IL6R-2B253/IL6R-L (antibody, human IgG1, kappa, name in EU numbering)
heavy: B1 heavy with D239G, G273P, V325M, R332A
light: not shown
Regarding B6, the relative binding activity in assay [1] stood at 155; in assay [2], 156; in assay [4], 126; in assay [3] it was 207.

B7: IL6R-BP130/IL6R-L (antibody, human IgG1, kappa, name in EU numbering)
heavy: B1 heavy with D239G, G273P, V325M, R332K
light: not shown
Regarding B7, the relative binding activity was 104 in assay [1] and 224 in assay [3].

B8: IL6R-BP195/IL6R-L (antibody, human IgG1, kappa, name in EU numbering)
heavy: B1 heavy with L236Y, H270D, Y298D, K328A, R332K
light: not shown
notes: Same printed alterations as IL6R-BP197
Regarding B8, the figures for the relative binding activity in assay [1], in assay [4] and in assay [3] were 68, 221 and 344, respectively.

B9: IL6R-BP190/IL6R-L (antibody, human IgG1, kappa, name in EU numbering)
heavy: B1 heavy with D235E, H270D, R332K
light: not shown
In the case of B9, the values for the relative binding activity in assay [1], in assay [4] and in assay [3] were 50, 155 and 224, respectively.

B10: IL6R-BP176/IL6R-L (antibody, human IgG1, kappa, name in EU numbering)
heavy: B1 heavy with D239G, G273P, K328D, R332K
light: not shown
Take B10: the values for the relative binding activity in assay [1], in assay [2] and in assay [3] were 102, 147 and 128, respectively.

B11: IL6R-BP151/IL6R-L (antibody, human IgG1, kappa, name in EU numbering)
heavy: B1 heavy with L236Y, G273P, K328A
light: not shown
In the case of B11, the relative binding activity was 39 in assay [1], 221 in assay [4] and 621 in assay [3].

B12: IL6R-BP131/IL6R-L (antibody, human IgG1, kappa, name in EU numbering)
heavy: B1 heavy with G273P, R332K
light: not shown
With B12, the relative binding activity in assay [1] was 33; in assay [4], 118; in assay [3], 253.

B13: IL6R-BP181/IL6R-L (antibody, human IgG1, kappa, name in EU numbering)
heavy: B1 heavy with D239G, K328A, R332K
light: not shown
In assay [4], B13 displayed a relative binding activity of 122.

B14: IL6R-BP146/IL6R-L (antibody, human IgG1, kappa, name in EU numbering)
heavy: B1 heavy with D235E, L236Y, G273P, K328A, R332A
light: not shown
Regarding B14, the relative binding activity in assay [2] worked out at 156; in assay [3], 203.

B15: IL6R-BP211/IL6R-L (antibody, human IgG1, kappa, name in EU numbering)
heavy: B1 heavy with D239G, H270D, K328A
light: not shown
B15: the relative binding activity in assay [1] came out at 128; in assay [2], 165; in assay [4], 87.

B16: IL6R-BP210/IL6R-L (antibody, human IgG1, kappa, name in EU numbering)
heavy: B1 heavy with D235E, H270D
light: not shown
For B16, the results for the relative binding activity in assay [1], in assay [2] and in assay [3] were 57, 187 and 279, respectively.

B17: IL6R-BP085/IL6R-L (antibody, human IgG1, kappa, name in EU numbering)
heavy: B1 heavy with D235E, G273P, R332K
light: not shown
Take B17: the relative binding activity in assay [1] was found to be 19; in assay [2], 152; in assay [4], 104; in assay [3] it was 158.

B18: IL6R-BP152/IL6R-L (antibody, human IgG1, kappa, name in EU numbering)
heavy: B1 heavy with L236Y, G273P, Y298D, K328A
light: not shown
As for B18, the relative binding activity in assay [1] is 34; in assay [2], 178; in assay [3] it was 548.

B19: IL6R-BP083/IL6R-L (antibody, human IgG1, kappa, name in EU numbering)
heavy: B1 heavy with D235E, D239G, G273P, Y298D, R332K
light: not shown
Regarding B19, the relative binding activity was found to be 50 in assay [1], 122 in assay [2] and 107 in assay [4].

B20: IL6R-BP204/IL6R-L (antibody, human IgG1, kappa, name in EU numbering)
heavy: B1 heavy with D239G, K328A
light: not shown
Turning to B20, the relative binding activity in assay [1] turned out to be 110; in assay [2] it was 165; in assay [3], 137.

B21: IL6R-BP084/IL6R-L (antibody, human IgG1, kappa, name in EU numbering)
heavy: B1 heavy with D235E, D239G, G273P, V325M, R332K
light: not shown
As to B21, the relative binding activity in assay [1] is 109; in assay [2] it was 141; in assay [4] it was 106; in assay [3], 162.

B22: IL6R-BP182/IL6R-L (antibody, human IgG1, kappa, name in EU numbering)
heavy: B1 heavy with D239G, Y298D, R332K
light: not shown
As to B22, the figures for the relative binding activity in assay [1], in assay [2] and in assay [3] were 95, 173 and 139, respectively.

B23: IL6R-BP132/IL6R-L (antibody, human IgG1, kappa, name in EU numbering)
heavy: B1 heavy with D239G, G273P, K328A, R332K
light: not shown
On to B23, for which the values for the relative binding activity in assay [1], in assay [2] and in assay [3] were 91, 150 and 130, respectively.

B24: IL6R-BP202/IL6R-L (antibody, human IgG1, kappa, name in EU numbering)
heavy: B1 heavy with D235E, K328A
light: not shown
Consider B24, for which the values for the relative binding activity in assay [1], in assay [2] and in assay [3] were 43, 185 and 285, respectively.

B25: IL6R-2B261/IL6R-L (antibody, human IgG1, kappa, name in EU numbering)
heavy: B1 heavy with D239G, G273P, Y298D, R332A
light: not shown
In the case of B25, the relative binding activity came out at 100 in assay [1], 115 in assay [2] and 87 in assay [4].

B26: IL6R-BP082/IL6R-L (antibody, human IgG1, kappa, name in EU numbering)
heavy: B1 heavy with D239G, G273P, R332K
light: not shown
With B26, the relative binding activity worked out at 74 in assay [1], 136 in assay [2], 87 in assay [4] and 106 in assay [3].

B27: IL6R-BP178/IL6R-L (antibody, human IgG1, kappa, name in EU numbering)
heavy: B1 heavy with R332K
light: not shown
For B27, the values for the relative binding activity in assay [2] and in assay [3] were 179 and 259, respectively.

B28: IL6R-BP205/IL6R-L (antibody, human IgG1, kappa, name in EU numbering)
heavy: B1 heavy with D239G, Y298D
light: not shown
On to B28, for which the relative binding activity in assay [1] was 97; in assay [2], 167; in assay [3], 108.

B29: IL6R-BP188/IL6R-L (antibody, human IgG1, kappa, name in EU numbering)
heavy: B1 heavy with H270D, R332K
light: not shown
With B29, the relative binding activity in assay [1] stood at 74; in assay [2] it was 179.
